Here are results for one molecule from PMC10888979 (bioRxiv, 2024).

This assay deals with Mat1 (230-309) (human, UniProt P51948). Briefly: crystal structure.
Sequence of Mat1 (230-309) (P51948 230-309): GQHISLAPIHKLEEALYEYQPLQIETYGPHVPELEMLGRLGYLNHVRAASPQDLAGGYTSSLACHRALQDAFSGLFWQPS

B1: VHH_(RD7-04), construct for co-crystallization (VHH)
VHH: QVQLVESGGGLVQPGGSLRLSCVASGFTFKNFYMGWVRQAPDKGLEWVATINSGGEIQSYADSVKGRFTISRDNAKNTLYLQMNNLRPEDTAVYYCSKQSSTPAKGQGTQVTVSS
Take B1: the binding result is on record as “binds”.
